Laboratory results taken from US20180371051A1 (published 2018).

T1: soluble, wild-type MICA (human, UniProt Q29983 24-299)
T1 chain: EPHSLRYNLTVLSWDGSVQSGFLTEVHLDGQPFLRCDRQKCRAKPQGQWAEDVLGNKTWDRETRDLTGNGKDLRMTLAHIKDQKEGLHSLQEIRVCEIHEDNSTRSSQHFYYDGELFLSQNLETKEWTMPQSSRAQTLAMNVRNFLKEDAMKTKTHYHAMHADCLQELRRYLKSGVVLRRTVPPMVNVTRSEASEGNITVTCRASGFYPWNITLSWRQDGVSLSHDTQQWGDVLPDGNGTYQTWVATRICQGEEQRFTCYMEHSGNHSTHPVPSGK


Assays:
soluble, wild-type MICA [1] = target: T1, soluble, wild-type MICA; experiment: SPR
soluble, wild-type MICA [2] = target: T1, soluble, wild-type MICA; experiment: SPR; 1:1 binding model
soluble, wild-type MICA [3] = target: T1, soluble, wild-type MICA; experiment: SPR; Two State Reaction model

Kd (soluble, wild-type MICA [1]) | Kd (soluble, wild-type MICA [2]) | Kd (soluble, wild-type MICA [3]) | Binder
4.6 nM | 4.6 nM | 9.72 nM | NKG2D^scd7 (heptamerized single-chain NKG2D dimer, Example 2) (receptor, FITC-conjugated for flow cytometry (two fluorophores per protomer)) GSRSAGAHAGWETPEGCEQVLTGKRLMQCLPNPEDVKMALEVYKLSLEIEQLELQRDSARQSTLDKELNQEVQIPLTESYCGPCPKNWICYKNNCYQFFDESKNWYESQASCMSQNASLLKVYSKEDQDLLKLVKSYHWMGLVHIPTNGSWQWEDGSILSPNLLTIIEMQKGDCALYASSFKGYIENCSTPNTYICMQRTVQIPLTESYCGPCPKNWICYKNNCYQFFDESKNWYESQASCMSQNASLLKVYSKEDQDLLKLVKSYHWMGLVHIPTNGSWQWEDGSILSPNLLTIIEMQKGDCALYASSFKGYIENCSTPNTYICMQRTV
13.8 nM |  |  | NKG2D^scd (single-chain dimer form of NKG2D) (receptor) NQEVQIPLTESYCGPCPKNWICYKNNCYQFFDESKNWYESQASCMSQNASLLKVYSKEDQDLLKLVKSYHWMGLVHIPTNGSWQWEDGSILSPNLLTIIEMQKGDCALYASSFKGYIENCSTPNTYICMQRTVQIPLTESYCGPCPKNWICYKNNCYQFFDESKNWYESQASCMSQNASLLKVYSKEDQDLLKLVKSYHWMGLVHIPTNGSWQWEDGSILSPNLLTIIEMQKGDCALYASSFKGYIENCSTPNTYICMQRTV
